According to patent US20110239316A1 (PIERRE FABRE MEDICAMENT, published 2011):

What was measured:
human c-Met receptor = human c-Met receptor (human, UniProt P08581 25-1390); experiment: cell-based or functional assay
C-Met-Rluc = C-Met-Rluc (R. reniformis, UniProt P08581 25-1390); experiment: cell-based or functional assay
C-Met-Rluc, sequence (P08581 25-1390): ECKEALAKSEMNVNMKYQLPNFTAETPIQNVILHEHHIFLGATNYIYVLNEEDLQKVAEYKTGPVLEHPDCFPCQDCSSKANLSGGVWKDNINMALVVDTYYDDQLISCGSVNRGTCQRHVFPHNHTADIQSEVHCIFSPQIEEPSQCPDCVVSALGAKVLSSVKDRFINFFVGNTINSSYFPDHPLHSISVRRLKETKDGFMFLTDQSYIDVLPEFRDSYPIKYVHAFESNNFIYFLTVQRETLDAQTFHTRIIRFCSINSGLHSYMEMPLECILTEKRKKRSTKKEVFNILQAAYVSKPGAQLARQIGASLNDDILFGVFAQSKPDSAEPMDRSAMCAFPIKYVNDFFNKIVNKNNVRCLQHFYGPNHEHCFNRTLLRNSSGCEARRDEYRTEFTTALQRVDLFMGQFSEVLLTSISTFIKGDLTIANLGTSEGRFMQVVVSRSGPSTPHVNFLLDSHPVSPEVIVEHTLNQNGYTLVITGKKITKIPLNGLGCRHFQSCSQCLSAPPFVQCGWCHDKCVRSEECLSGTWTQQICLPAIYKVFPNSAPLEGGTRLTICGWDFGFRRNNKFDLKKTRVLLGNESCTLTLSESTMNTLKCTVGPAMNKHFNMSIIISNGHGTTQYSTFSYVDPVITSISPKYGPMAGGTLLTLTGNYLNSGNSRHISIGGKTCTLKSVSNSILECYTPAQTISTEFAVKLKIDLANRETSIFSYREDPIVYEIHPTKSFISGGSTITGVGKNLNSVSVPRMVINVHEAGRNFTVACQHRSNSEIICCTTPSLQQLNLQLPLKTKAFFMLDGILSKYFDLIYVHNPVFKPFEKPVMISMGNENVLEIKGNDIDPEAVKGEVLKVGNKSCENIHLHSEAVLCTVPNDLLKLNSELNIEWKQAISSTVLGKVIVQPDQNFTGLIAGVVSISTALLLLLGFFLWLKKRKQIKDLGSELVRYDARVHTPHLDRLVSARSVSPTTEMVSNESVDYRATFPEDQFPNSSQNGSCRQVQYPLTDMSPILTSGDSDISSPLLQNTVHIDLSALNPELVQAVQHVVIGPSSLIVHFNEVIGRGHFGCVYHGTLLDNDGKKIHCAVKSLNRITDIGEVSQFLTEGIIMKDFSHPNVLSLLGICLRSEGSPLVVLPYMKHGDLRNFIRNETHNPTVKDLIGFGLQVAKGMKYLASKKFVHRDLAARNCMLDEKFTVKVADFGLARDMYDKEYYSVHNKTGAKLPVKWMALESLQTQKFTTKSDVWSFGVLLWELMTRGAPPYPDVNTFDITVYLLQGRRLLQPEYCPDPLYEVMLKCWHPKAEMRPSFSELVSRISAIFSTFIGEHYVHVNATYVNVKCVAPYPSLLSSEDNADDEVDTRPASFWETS

human c-Met receptor, sequence (P08581 25-1390): as above

B1: murine 224G11 Mab (antibody, V domains shown)
VH: EVQLQQSGPELVKPGASVKISCKTSGYIFTAYTMHWVRQSLGESLDWIGGIKPNNGLANYNQKFKGKATLTVDKSSSTAYMDLRSLTSEDSAVYYCARSEITTEFDYWGQGTALTVSS
VL: DIVLTQSPASLAVSLGQRATISCRASESVDSYANSFMHWYQQKPGQPPKLLIYRASNLESGIPARFSGSGSRTDFTLTINPVEADDVATYYCQQSKEDPLTFGSGTKLEMKR
inhibition of HGF-induced proliferation of NCI-H441 cells ([3H]thymidine), FIG. 14A (human c-Met receptor): 66% | inhibition of HGF-induced proliferation of NCI-H441 cells ([3H]thymidine), FIG. 14B (human c-Met receptor): 57% | inhibition of HGF-induced proliferation of NCI-H441 cells ([3H]thymidine), FIG. 15 (human c-Met receptor): 74% | inhibition of HGF induced BRET signal, c-Met activation model (C-Met-Rluc): 56.4% | inhibition of HGF induced BRET signal, c-Met dimerization model (C-Met-Rluc): 59.4%

B2: [224G11] [MH chim] (antibody, V domains shown)
VH: EVQLQQSGPELVKPGASVKISCKTSGYIFTAYTMHWVRQSLGESLDWIGGIKPNNGLANYNQKFKGKATLTVDKSSSTAYMDLRSLTSEDSAVYYCARSEITTEFDYWGQGTALTVSS
VL: DIVLTQSPASLAVSLGQRATISCRASESVDSYANSFMHWYQQKPGQPPKLLIYRASNLESGIPARFSGSGSRTDFTLTINPVEADDVATYYCQQSKEDPLTFGSGTKLEMKR
inhibition of HGF-induced proliferation of NCI-H441 cells ([3H]thymidine), FIG. 14B (human c-Met receptor): 79% | BRET signal with Mab alone, c-Met activation model (C-Met-Rluc): 5.1% | inhibition of HGF induced BRET signal, c-Met activation model (C-Met-Rluc): 59.7% | inhibition of HGF induced BRET signal, c-Met dimerization model (C-Met-Rluc): 61.8%

B3: [224G11] [MMCH chim] (antibody, V domains shown)
VH: EVQLQQSGPELVKPGASVKISCKTSGYIFTAYTMHWVRQSLGESLDWIGGIKPNNGLANYNQKFKGKATLTVDKSSSTAYMDLRSLTSEDSAVYYCARSEITTEFDYWGQGTALTVSS
VL: DIVLTQSPASLAVSLGQRATISCRASESVDSYANSFMHWYQQKPGQPPKLLIYRASNLESGIPARFSGSGSRTDFTLTINPVEADDVATYYCQQSKEDPLTFGSGTKLEMKR
inhibition of HGF-induced proliferation of NCI-H441 cells ([3H]thymidine), FIG. 14B (human c-Met receptor): 84% | BRET signal with Mab alone, c-Met activation model (C-Met-Rluc): -2% | inhibition of HGF induced BRET signal, c-Met activation model (C-Met-Rluc): 53.2% | inhibition of HGF induced BRET signal, c-Met dimerization model (C-Met-Rluc): 52.5%

B4: [224G11]chim (antibody, human IgG1, V domains shown)
VH: EVQLQQSGPELVKPGASVKISCKTSGYIFTAYTMHWVRQSLGESLDWIGGIKPNNGLANYNQKFKGKATLTVDKSSSTAYMDLRSLTSEDSAVYYCARSEITTEFDYWGQGTALTVSS
VL: DIVLTQSPASLAVSLGQRATISCRASESVDSYANSFMHWYQQKPGQPPKLLIYRASNLESGIPARFSGSGSRTDFTLTINPVEADDVATYYCQQSKEDPLTFGSGTKLEMKR
inhibition of HGF-induced proliferation of NCI-H441 cells ([3H]thymidine), FIG. 14A (human c-Met receptor): 19% | inhibition of HGF-induced proliferation of NCI-H441 cells ([3H]thymidine), FIG. 15 (human c-Met receptor): 33% | inhibition of HGF induced BRET signal, c-Met activation model (C-Met-Rluc): 34.5% | inhibition of HGF induced BRET signal, c-Met dimerization model (C-Met-Rluc): 28.9%

B5: [224G11] [MUP9H chim] (antibody, V domains shown)
VH: EVQLQQSGPELVKPGASVKISCKTSGYIFTAYTMHWVRQSLGESLDWIGGIKPNNGLANYNQKFKGKATLTVDKSSSTAYMDLRSLTSEDSAVYYCARSEITTEFDYWGQGTALTVSS
VL: DIVLTQSPASLAVSLGQRATISCRASESVDSYANSFMHWYQQKPGQPPKLLIYRASNLESGIPARFSGSGSRTDFTLTINPVEADDVATYYCQQSKEDPLTFGSGTKLEMKR
inhibition of HGF-induced proliferation of NCI-H441 cells ([3H]thymidine), FIG. 14B (human c-Met receptor): 78% | BRET signal with Mab alone, c-Met activation model (C-Met-Rluc): 7.6% | inhibition of HGF induced BRET signal, c-Met activation model (C-Met-Rluc): 64.4% | inhibition of HGF induced BRET signal, c-Met dimerization model (C-Met-Rluc): 64.4%

B6: [224G11] [TH7 chim] (antibody, human IgG1)
heavy: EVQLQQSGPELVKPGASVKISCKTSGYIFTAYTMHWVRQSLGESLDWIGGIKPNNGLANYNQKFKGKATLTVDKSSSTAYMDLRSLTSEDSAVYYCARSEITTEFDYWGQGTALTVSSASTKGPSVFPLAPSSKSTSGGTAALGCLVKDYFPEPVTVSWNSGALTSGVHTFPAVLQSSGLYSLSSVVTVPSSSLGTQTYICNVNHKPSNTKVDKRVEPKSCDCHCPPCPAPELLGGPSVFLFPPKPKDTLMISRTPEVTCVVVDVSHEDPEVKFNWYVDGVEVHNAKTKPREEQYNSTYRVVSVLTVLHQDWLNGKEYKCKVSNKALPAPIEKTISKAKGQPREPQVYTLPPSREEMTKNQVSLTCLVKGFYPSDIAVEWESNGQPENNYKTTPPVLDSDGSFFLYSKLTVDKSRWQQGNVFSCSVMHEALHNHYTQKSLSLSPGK
light: DIVLTQSPASLAVSLGQRATISCRASESVDSYANSFMHWYQQKPGQPPKLLIYRASNLESGIPARFSGSGSRTDFTLTINPVEADDVATYYCQQSKEDPLTFGSGTKLEMKRTVAAPSVFIFPPSDEQLKSGTASVVCLLNNFYPREAKVQWKVDNALQSGNSQESVTEQDSKDSTYSLSSTLTLSKADYEKHKVYACEVTHQGLSSPVTKSFNRGEC
inhibition of HGF-induced proliferation of NCI-H441 cells ([3H]thymidine), FIG. 14B (human c-Met receptor): 93% | inhibition of HGF-induced proliferation of NCI-H441 cells ([3H]thymidine), FIG. 15 (human c-Met receptor): 81% | BRET signal with Mab alone, c-Met activation model (C-Met-Rluc): -6.9% | inhibition of HGF induced BRET signal, c-Met activation model (C-Met-Rluc): 73.8% | inhibition of HGF induced BRET signal, c-Met dimerization model (C-Met-Rluc): 64.4%

B7: [224G11] [IgG2 chim] (antibody)
heavy: EVQLQQSGPELVKPGASVKISCKTSGYIFTAYTMHWVRQSLGESLDWIGGIKPNNGLANYNQKFKGKATLTVDKSSSTAYMDLRSLTSEDSAVYYCARSEITTEFDYWGQGTALTVSSASTKGPSVFPLAPCSRSTSESTAALGCLVKDYFPEPVTVSWNSGALTSGVHTFPAVLQSSGLYSLSSVVTVPSSNFGTQTYTCNVDHKPSNTKVDKTVERKCCVECPPCPAPPVAGPSVFLFPPKPKDTLMISRTPEVTCVVVDVSHEDPEVQFNWYVDGVEVHNAKTKPREEQFNSTFRVVSVLTVVHQDWLNGKEYKCKVSNKGLPAPIEKTISKTKGQPREPQVYTLPPSREEMTKNQVSLTCLVKGFYPSDIAVEWESNGQPENNYKTTPPMLDSDGSFFLYSKLTVDKSRWQQGNVFSCSVMHEALHNHYTQKSLSLSPG
light: DIVLTQSPASLAVSLGQRATISCRASESVDSYANSFMHWYQQKPGQPPKLLIYRASNLESGIPARFSGSGSRTDFTLTINPVEADDVATYYCQQSKEDPLTFGSGTKLEMKRTVAAPSVFIFPPSDEQLKSGTASVVCLLNNFYPREAKVQWKVDNALQSGNSQESVTEQDSKDSTYSLSSTLTLSKADYEKHKVYACEVTHQGLSSPVTKSFNRGEC
inhibition of HGF induced BRET signal, c-Met dimerization model (C-Met-Rluc): 62.4%

B8: [224G11] [Hz1] (antibody, V domains shown)
VH: QVQLVQSGAEVKKPGASVKVSCKASGYIFTAYTMHWVRQAPGQGLEWMGWIKPNNGLANYAQKFQGRVTMTRDTSISTAYMELSRLRSDDTAVYYCARSEITTEFDYWGQGTLVTVSS
VL: DIVLTQSPDSLAVSLGERATINCKSSESVDSYANSFMHWYQQKPGQPPKLLIYRASTRESGVPDRFSGSGSRTDFTLTISSLQAEDVAVYYCQQSKEDPLTFGGGTKVEIKR
inhibition of HGF-induced proliferation of NCI-H441 cells ([3H]thymidine), FIG. 14A (human c-Met receptor): ~46%

B9: [224G11] [TH7 Hz3] (antibody, human IgG1, V domains shown)
VH: QVQLVQSGAEVKKPGASVKVSCKASGYIFTAYTMHWVRQAPGQGLEWMGWIKPNNGLANYAQKFQGRVTMTRDTSISTAYMELSRLRSDDTAVYYCARSEITTEFDYWGQGTLVTVSS
VL: DIVMTQSPDSLAVSLGERATINCKSSESVDSYANSFLHWYQQKPGQPPKLLIYRASTRESGVPDRFSGSGSGTDFTLTISSLQAEDVAVYYCQQSKEDPLTFGGGTKVEIKR
inhibition of HGF-induced proliferation of NCI-H441 cells ([3H]thymidine), FIG. 15 (human c-Met receptor): 76% | inhibition of HGF induced BRET signal, c-Met activation model (C-Met-Rluc): 57.9% | inhibition of HGF induced BRET signal, c-Met dimerization model (C-Met-Rluc): 49.4%

B10: [224G11] [Hz3] (antibody, V domains shown)
VH: QVQLVQSGAEVKKPGASVKVSCKASGYIFTAYTMHWVRQAPGQGLEWMGWIKPNNGLANYAQKFQGRVTMTRDTSISTAYMELSRLRSDDTAVYYCARSEITTEFDYWGQGTLVTVSS
VL: DIVMTQSPDSLAVSLGERATINCKSSESVDSYANSFLHWYQQKPGQPPKLLIYRASTRESGVPDRFSGSGSGTDFTLTISSLQAEDVAVYYCQQSKEDPLTFGGGTKVEIKR
inhibition of HGF-induced proliferation of NCI-H441 cells ([3H]thymidine), FIG. 14A (human c-Met receptor): ~35%

B11: [224G11] [Hz2] (antibody, V domains shown)
VH: QVQLVQSGAEVKKPGASVKVSCKASGYIFTAYTMHWVRQAPGQGLEWMGWIKPNNGLANYAQKFQGRVTMTRDTSISTAYMELSRLRSDDTAVYYCARSEITTEFDYWGQGTLVTVSS
VL: DIVMTQSPDSLAVSLGERATINCKSSESVDSYANSFMHWYQQKPGQPPKLLIYRASTRESGVPDRFSGSGSGTDFTLTISSLQAEDVAVYYCQQSKEDPLTFGGGTKVEIKR
inhibition of HGF-induced proliferation of NCI-H441 cells ([3H]thymidine), FIG. 14A (human c-Met receptor): ~30%

B12: [224G11] [TH7 Hz2] (antibody, human IgG1, V domains shown)
VH: QVQLVQSGAEVKKPGASVKVSCKASGYIFTAYTMHWVRQAPGQGLEWMGWIKPNNGLANYAQKFQGRVTMTRDTSISTAYMELSRLRSDDTAVYYCARSEITTEFDYWGQGTLVTVSS
VL: DIVMTQSPDSLAVSLGERATINCKSSESVDSYANSFMHWYQQKPGQPPKLLIYRASTRESGVPDRFSGSGSGTDFTLTISSLQAEDVAVYYCQQSKEDPLTFGGGTKVEIKR
inhibition of HGF induced BRET signal, c-Met activation model (C-Met-Rluc): 41.8% | inhibition of HGF induced BRET signal, c-Met dimerization model (C-Met-Rluc): 35.8%

B13: [224G11] [TH7 Hz1] (antibody, human IgG1, V domains shown)
VH: QVQLVQSGAEVKKPGASVKVSCKASGYIFTAYTMHWVRQAPGQGLEWMGWIKPNNGLANYAQKFQGRVTMTRDTSISTAYMELSRLRSDDTAVYYCARSEITTEFDYWGQGTLVTVSS
VL: DIVLTQSPDSLAVSLGERATINCKSSESVDSYANSFMHWYQQKPGQPPKLLIYRASTRESGVPDRFSGSGSRTDFTLTISSLQAEDVAVYYCQQSKEDPLTFGGGTKVEIKR
inhibition of HGF-induced proliferation of NCI-H441 cells ([3H]thymidine), FIG. 15 (human c-Met receptor): 67% | inhibition of HGF induced BRET signal, c-Met activation model (C-Met-Rluc): 59.9% | inhibition of HGF induced BRET signal, c-Met dimerization model (C-Met-Rluc): 52.2%
